Source: US11780927B2, “Anti-CD40 antibodies for use in prevention of graft rejection” (NOVARTIS AG, priority 2018, dated 2023)
Where “and” joins values, the source holds several entries; their conditions need not be identical. Equal values may be shown once.

Legend:
[1] = 13-week GLP toxicity study
[2] = 26-week chronic toxicity study
[3] = cynomolgus monkey, in vivo
[4] = system: life-supporting kidney allografts; experiment: NHP model of kidney allograft rejection; type: in vivo, cynomolgus monkeys (Macaca fascicularis)
[5] = Plasma concentrations in solid organ transplantation patients; type: in vivo, human
Experimental: Without wishing to be bound by theory, the inventors have identified that sustained plasma concentrations at least about 40 μg/mL of the CFZ533 antibody was necessary to block the CD40-CD40L pathway in target tissues in solid organ transplantation patients. Thus, with a dosing regimen providing, throughout the entire treatment period, sustained plasma concentrations of at least 40 μg/mL and up to 400 μg/mL, in situations where CD40 expression in affected tissues would be enhanced (severity of the condition, activation of the immune system post transplantation), is considered for a therapeutic effect.

[6] = system: T cell-dependent antibody responses (TDAR); experiment: Recall T cell-dependent antibody response to KLH; type: in vivo, rhesus monkeys; details: at second KLH immunization, single 10 mg/kg i.v.
Experimental: Monkeys were immunized with KLH three times (the first was about 3 weeks prior to dosing, the second was 2 weeks after mAb1 administration, and the third was after complete wash-out of mAb1). […] Once mAb1 was cleared, all animals mounted a full memory antibody response to the third KLH.
In the PK study, CFZ533 was administered to three animals at calculated single doses of 16.2 (5532), 18.5 (5531) and 20 (5530) mg/kg. Blood was sampled for analyses of CFZ533 serum concentrations, numbers of peripheral T and B lymphocytes, and CD40 occupancy on peripheral B cells by CFZ533. For recall TDAR experiments, animals were immunized with keyhole limpet hemocyanin (KLH) in Alum on study days 8 (priming) and 43 (recall; during CFZ533 treatment) respectively. Serum was sampled one day before and 7, 14 and 21 days after priming and recall immunizations. KLH specific IgM/IgG titers were determined with sandwich ELISA using cynomolgus monkey anti-KLH IgM/IgG reference serum as standard. PK assessment was performed as described above. See supplementary material for additional details on the PK and TDAR experiments.
Arrows below the x-axis highlight primary and secondary KLH immunizations. The timing of a single dose of 10 mg/kg CFZ533 is shown above. The asterisks indicate time points at which anti-KLH IgG and/or CFZ533 levels were measured. FIG. 10B. […]

[7] = molecular target: T1, CD40 on peripheral B cells (Homo sapiens, UniProt P25942); experiment: Single-ascending dose study in healthy subjects and rheumatoid arthritis patients; type: in vivo; details: for Safety and tolerability: single doses up to 3 mg/kg in healthy volunteers, 10 mg/kg in RA patients
T1 construct: CD40 occupancy on peripheral B cells measuring free CD40 and total CD40; endogenous in cells; host or cells: peripheral / whole blood B cells of healthy subjects and rheumatoid arthritis patients dosed with CFZ533
Experimental: The safety, tolerability, PK and PD activity of mAb1 are being assessed in an ongoing, randomized, double-blind, placebo-controlled, single-ascending dose study of mAb1 in healthy subjects and patients with rheumatoid arthritis (RA). A total of 48 subjects have been enrolled: 36 healthy subjects who received single doses of mAb1 up to 3 mg/kg IV or S.C., and 12 patients with RA, 6 of whom received single doses of mAb1 at 10 mg/kg IV. […] An investigation of the 30 mg/kg IV dose is ongoing in RA patients. As this study is still ongoing, all clinical data are preliminary in nature and based on interim analyses conducted up to a dose of 10 mg/kg in RA patients. […]

Single dose PK/PD study = type: in vivo, cynomolgus monkeys
Experimental: Single dose pharmacokinetic/pharmacodynamic (PK/PD) studies utilized biologics-treatment naive cynomolgus monkeys (Macaca fascicularis) between 7.5-8.5 years old (6.5±2.6 kg) and captive-bred from Philippines (Siconbrec, Makati City, Philippines). Animal handling, care, drug treatments and blood sampling are performed according to the Swiss Federal Law for animal protection (animal licenses BS #1900, BS #1495). For the recall immunization experiments, we utilized animals from a toxicology study conducted at Covance Laboratories GmbH, Muenster, Germany, (manuscript in preparation). The study was performed according to an authorized study protocol and local standard operating procedures in strict compliance with national legal regulations on animal welfare law and accepted animal welfare standards.
In the PK study, CFZ533 was administered to three animals at calculated single doses of 16.2 (5532), 18.5 (5531) and 20 (5530) mg/kg. […] KLH specific IgM/IgG titers were determined with sandwich ELISA using cynomolgus monkey anti-KLH IgM/IgG reference serum as standard. […]
FIG. 9A. Serum concentrations of CFZ533 in three cynomolgus monkeys after single dose administration at calculated doses of 16.2 (5532), 18.5 (5531) and 20 (5530) mg/kg intravenously. […]

PBMCs = details: Rhesus

T1 sequence (P25942 21-277): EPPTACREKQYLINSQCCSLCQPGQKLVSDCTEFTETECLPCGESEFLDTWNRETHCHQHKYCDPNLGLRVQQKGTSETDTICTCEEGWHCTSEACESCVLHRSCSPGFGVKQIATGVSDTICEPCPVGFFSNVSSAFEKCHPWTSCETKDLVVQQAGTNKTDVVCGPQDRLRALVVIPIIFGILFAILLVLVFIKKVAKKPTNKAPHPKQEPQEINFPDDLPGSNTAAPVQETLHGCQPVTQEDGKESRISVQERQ

Substance: CFZ533: human anti-CD40 IgG1 monoclonal antibody with Fc-silencing N297A mutation; heavy chain SEQ ID NO: 9, light chain SEQ ID NO: 10
- Increased lymphoid cellularity ([1]; weekly dosing at 10, 50 and 150 mg/kg): 5/22
- No Observed Adverse Effect Level (NOAEL) ([1]; weekly dosing, rhesus monkey): 10 mg/kg
- serum concentration with incomplete or no suppression of GCs ([2]; 1 mg/kg/week subcutaneously, 26 weeks): below 20 μg/mL
- NOAEL ([2]; 26-week, cynomolgus monkeys): 150 mg/kg
- Cmax,ss at NOAEL versus expected human Cmax ([2]; proposed intravenous regimen): 24 fold
- average concentration at steady state (Cav,ss) ([3]; 150 mg/kg): 8300 µg/mL
- systemic exposure (AUC, steady state conditions) over a 1-month period ([3]; 150 mg/kg): 232400 µg·days/mL
- Cmax,ss (mean, all animals) ([3]; sc, 50 mg/kg): 3235 µg/mL
- Days after Transplantation (median days) ([4]; CFZ533 30 mg/kg i.v. monotherapy, n 5): 95 days
- Survival of kidney allografts and graft morphology ([4]; combination with CsA (20 mg/kg p.o.) or monotherapy): demonstrated efficacy in increasing the survival of kidney allografts in NHPs
- Safety and tolerability at maximum plasma concentration ([5]; about 400 μg/ml at steady state): generally safe and well tolerated
- Thromboembolic events ([5]; human, in vivo): No thromboembolic events were observed
- observed maximum plasma concentration at steady state ([5]; human, in vivo): about 400 μg/ml
- sustained plasma concentration necessary to block the CD40-CD40L pathway in target tissues ([5]; solid organ transplantation patients): at least 40 μg/mL
- CFZ533 concentration required for complete suppression of recall TDAR ([6]; 10 mg/kg): > 40 µg/mL and 30 to 40 µg/mL
- CFZ533 concentration required for complete suppression of recall TDAR ([6]; listed as mAb1, 10 mg/kg): > 40 µg/mL
- duration of full CD40 occupancy ([7]; 1 mg/kg IV): 1 week
- duration of target engagement (full CD40 occupancy on B cells) ([7]; 3 mg/kg IV, healthy subjects): about 4 weeks
- duration of target engagement (full CD40 occupancy on B cells) ([7]; 3 mg/kg SC, healthy subjects): about 4 weeks
- time of peak plasma concentration ([7]; 3 mg/kg SC, healthy subjects): 3 days
- duration of full CD40 occupancy ([7]; 10 mg/kg IV, rheumatoid arthritis patients): 8 weeks
- duration of target engagement ([7]; 30 mg/kg IV, rheumatoid arthritis patients): 16 weeks
- decrease in total CD40 on peripheral B cells ([7]; healthy subjects): about 50%
- ADA incidence ([7]; human, in vivo): 2%
- plasma concentration associated with full (≥90%) CD40 occupancy on whole blood B cells ([7]; human, in vivo): 0.3 to 0.4 µg/mL
- duration of suppression of anti-KLH responses (full receptor occupancy) ([7]; single dose of 3 mg/kg (IV and SC)): 3-4 weeks
- Safety and tolerability [7]: did not reveal major safety concern
- Safety and tolerability ([7]; listed as mAb1): safe and well tolerated
- inflection point in PK profiles (drop of CD40 saturation) (Single dose PK/PD study; serum concentration-time profiles, non-human primates): 10 to 20 µg/mL
- Depletion of peripheral blood B cells (Single dose PK/PD study; single intravenous dose 16.2, 18.5 and 20 mg/kg): did not deplete peripheral blood B cells
- Inhibition of rCD154-induced proliferation (IC50 PBMCs) (PBMCs): 0.03 µg/mL and 0.026 ± 0.017 µg/mL
